Where a SMILES comes first, the peptide text is derived from it. [ ]: non-standard residue; d: D form. The star is where a group is joined. ξ: configuration not given here. Succinyl(4-O-cholesteryl) = CC(C)CCC[C@@H](C)[C@H]1CC[C@H]2[C@@H]3CC=C4C[C@@H](OC(=O)CCC(=O)*)CC[C@]4(C)[C@H]3CC[C@]12C; ξD = NC(CC(=O)O)C(=O)O
Key:
RSV A2 virus strain [1] = assay: Mouse RSV A2 challenge protection, lung viral titer by plaque method; assay type: in vivo, BALB/c mice; settings: for Mean (PFU/g lung): BALB/c mice, tracheal nebulization 1 mg/kg QD for 5 days, lung collected 2 h after final administration on Day 4; for effect on viral titer in lung tissue (in words): mice, tracheal nebulization once daily for 5 days
Description: Female BALB/c mice were from Shanghai Yishang Biotechnology Co., Ltd. HEp- 2 were from the ATCC, with a catalog number CCL-23. The cells were cultured in a DMEM medium solution in which 10% (v/v) fetal bovine serum and 1% penicillin and streptomycin were added. The RSV A2 virus strain was from the ATCC, with a catalog number VR-1540.
Eight-week-old female BALB/c mice were grouped based on body weight (n=6). All animals were intranasally challenged with RSV on Day 0 at a challenge dosage of 1×10^6 pfu (20 μL) per animal. Administration began 1 h after Day 0 challenge; the polypeptide sample, positive control, and solvent control were administered via tracheal nebulization once daily for 5 consecutive days (see Table 3 below for administration dosage and administration frequency). Lung tissue was collected from all animals 2 h after the final administration on Day 4; left lung tissue was rapidly frozen in a virus protection solution with a 10-fold volume and stored below −70° C.; and a viral titer was detected by using a plaque method.
For analysis, the lung RSV A2 virus was determined by performing a tissue homogenate viral load plaque method. In short, on the day prior to sample detection, the HEp-2 cells were inoculated into a 12-well plate (spreading density being 0.3×10^6 cells/mL, with 1000 μL of cell suspension per well) according to a standard HEp-2 cell culture operation procedure. On the day of incubation, the supernatant was taken from the tissue sample that was homogenized using a tissue homogenizer (maintaining a low-temperature environment), and the supernatant was taken after centrifugation. The tissue homogenate sample was diluted with serum-free DMEM, and inoculated into a 12-well plate at a final volume of 400 μL. After 2 h of incubation, the homogenate supernatant was discarded, and 1.5 mL of a covering layer (cell culture medium containing 1% soft agar) was added to each well and cultured in the incubator for approximately 72 h. The covering layer was discarded, the cells were fixed, blocking was performed by using a blocking solution, dyeing was performed with HRP-RSVG, development and air drying were terminated with pure water. Colored spots on the well plate were counted by using a fluorescent (enzyme-linked) immunoassay spot analyzer, and the viral titer was expressed as a plaque-forming unit per gram of tissue (PFU/g). The viral titer was calculated as an arithmetic mean±standard error of all animals in a group.
(§1) One hour after RSV A2 challenge in mice, compounds 13, 14, 17, 19, 20, 21, 26, 27, 28, and 40 were administered via tracheal nebulization once daily for 5 consecutive days; and 2 h after the final administration, lung tissue was collected from all groups for viral plaque detection, and results were shown in Table 3.

[2] = Cytotoxicity test in HEp-2 cells (CCK8 cell viability); assay type: cell-based; settings: human; HEp-2 cells, CCK8, 1 day; read-out: CC50
In short: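 Compound dilutions (final DMSO 0.5%) were applied for 1 day to HEp-2 cells plated at 30,000 per well the day before. CCK8 signal gave survival relative to cell and medium controls, and a four-parameter log(inhibitor)-response fit yielded CC50.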

RSV A2 virus strain [3] = assay: Cotton rat RSV A2 challenge protection, lung nucleic acid load by RT-qPCR; assay type: in vivo; settings: cotton rats; for Nucleic acid load RT-qPCR detection results Log10 mean (copy number/gram of lung tissue): tracheal nebulization 1 mg/kg QD for 5 days, lung collected 2 h after final administration on Day 4; for effect on viral titer in lung tissue (in words): tracheal nebulization once daily for 5 days
Excerpt: Female cotton rats were from Shanghai Yishang Biotechnology Co., Ltd. The RSV A2 virus strain was from the ATCC, with a catalog number VR-1540. RT-qPCR primer+probe primer were supplied by Qingke Biotechnology Co., Ltd, with batch number TSP20241227-025-00187. The RT-qPCR standard was provided by Vazyme, with batch number 20241008.
Female cotton rats (6-8 weeks old) were grouped based on body weight (n=5). All animals were intranasally challenged with RSV on Day 0 at a challenge dosage of […] pfu (50 μL) per animal. Administration began 1 h after Day 0 challenge; the polypeptide sample, positive control, and solvent control were administered via tracheal nebulization once daily for 5 consecutive days. Lung tissue was collected from all animals 2 h after the final administration on Day 4. Left lung tissue (including partial trachea) was rapidly frozen in a virus protection solution with a 10-fold volume and stored below −70° C.; and the viral titer was detected with RT-qPCR.
First, sample homogenization and lung tissue RNA extraction were performed, and the supernatant was taken from the tissue sample that was homogenized using a tissue homogenizer (maintaining a low-temperature environment). The approximately 100 μL of the homogenate supernatant was taken, and total tissue RNA was extracted by using a VeZol reagent-chloroform-water phase-magnetic bead method, and dissolved in RNase-free water. The RT-qPCR reaction system was prepared as follows: a one-step RT-qPCR reaction system was prepared by using an RNA template, a probe, a primer pair, an RT-qPCR buffer, and the RNase-free water; each sample was tested in duplicated wells, with each well containing 20 μL of the one-step RT-qPCR reaction system; a quantitative standard curve well (RSV A2 N gene full-length plasmid), a positive quality control well, and a negative quality control well were arranged at the same time. Then, amplification programs were set according to reverse transcription, pre-denaturation, and cyclic amplification, and amplification data was collected by using a real-time fluorescence quantification PCR instrument, and a mean CT value for duplicated wells was calculated. The CT value from the test results for each sample was substituted into a quantitative standard curve to calculate a copy number. A calculation formula for RSV viral load (copy number/gram of lung tissue) was: sample viral load (copy number/gram of lung tissue)=copy number/relative tissue input (g).
as §1, with “cotton rats,” for “mice,”, “titer” for “plaque”, “4.” for “3.”

[4] = substrate: F protein of hPIV Type 3 (hPIV3 C243) (human parainfluenza virus type 3, strain C243); assay: cell-based or functional assay
[5] = molecular target: T1, F protein of RSV A long virus strain (respiratory syncytial virus, RSV A long virus strain), P12568; assay: cell-based or functional assay
T1 chain: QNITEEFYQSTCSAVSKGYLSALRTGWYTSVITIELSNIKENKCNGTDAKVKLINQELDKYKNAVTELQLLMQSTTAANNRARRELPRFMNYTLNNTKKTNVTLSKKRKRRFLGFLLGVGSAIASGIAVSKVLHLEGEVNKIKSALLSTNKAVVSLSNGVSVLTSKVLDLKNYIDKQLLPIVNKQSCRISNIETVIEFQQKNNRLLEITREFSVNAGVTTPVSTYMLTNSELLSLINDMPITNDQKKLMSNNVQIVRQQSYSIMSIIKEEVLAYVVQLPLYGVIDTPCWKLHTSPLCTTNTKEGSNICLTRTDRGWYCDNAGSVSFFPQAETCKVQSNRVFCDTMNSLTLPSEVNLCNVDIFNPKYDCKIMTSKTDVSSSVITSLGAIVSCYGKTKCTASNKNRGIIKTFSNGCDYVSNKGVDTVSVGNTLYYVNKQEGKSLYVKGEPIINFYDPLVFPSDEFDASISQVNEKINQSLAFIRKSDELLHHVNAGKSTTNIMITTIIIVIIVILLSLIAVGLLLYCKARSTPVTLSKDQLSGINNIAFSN

[6] = substrate: F protein of hMPV virus strain B1 (human metapneumovirus, strain B1); assay: cell-based or functional assay
[7] = substrate: F protein of hMPV virus strain A2 (human metapneumovirus, strain A2); assay: cell-based or functional assay
[8] = molecular target: hPIV-N51 (139-189) (human parainfluenza virus (hPIV))
Sequence of hPIV-N51 (139-189) (human parainfluenza virus (hPIV)) (P06828 139-189): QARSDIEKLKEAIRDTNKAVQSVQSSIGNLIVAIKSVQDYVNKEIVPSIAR

Molecule: CC[C@H](C)[C@H](NC(=O)[C@H](CCCCN)NC(=O)[C@H](CCCCN)NC(=O)[C@H](CC(C)C)NC(=O)[C@H](CO)NC(=O)[C@H](CCC(=O)O)NC(=O)[C@H](CCC(=O)O)NC(=O)[C@@H](NC(=O)[C@H](CCCCN)NC(=O)[C@H](CCCCN)NC(=O)[C@H](CC(N)=O)NC(=O)[C@@H](NC(=O)[C@H](CCC(=O)O)NC(=O)[C@H](CCC(=O)O)NC(=O)[C@@H](NC(=O)[C@H](CCCCN)NC(=O)[C@H](CCCCN)NC(=O)[C@H](CC(=O)O)NC(=O)[C@H](Cc1ccccc1)NC(=O)[C@H](CCC(=O)O)NC(=O)C(CC(=O)O)NC(C)=O)[C@@H](C)CC)C(C)C)[C@@H](C)CC)C(=O)N[C@@H](CCC(=O)O)C(=O)N[C@@H](CCC(=O)O)C(=O)N[C@@H](CO)C(=O)N[C@@H](CC(=O)O)C(=O)N[C@@H](CCCCN)C(=O)N[C@@H](CCCCN)C(=O)N[C@@H](CC(C)C)C(=O)N[C@@H](CCC(=O)O)C(=O)N[C@@H](C)C(=O)N[C@@H](C)C(=O)N[C@@H](C)C(=O)N[C@@H](CCCCN)C(=O)N[C@@H](CCCCNC(=O)CCC(=O)O[C@H]1CC[C@@]2(C)C(=CC[C@H]3[C@@H]4CC[C@H]([C@H](C)CCCC(C)C)[C@@]4(C)CC[C@@H]32)C1)C(N)=O (stereo partly drawn) [Compound 17] (Ac-[ξD]EFDKKIEEVNKKIEESLKKIEESDKKLEAAAKK(Succinyl(4-O-cholesteryl))-NH2)
- Mean (PFU/g lung) (RSV A2 virus strain [1]): 7885 PFU/g lung
- effect on viral titer in lung tissue (in words) (RSV A2 virus strain [1]): significantly reduce the viral titer in lung tissue
- CC50 at 1 day [2]: 26400 nM
- Nucleic acid load RT-qPCR detection results Log10 mean (copy number/gram of lung tissue) (RSV A2 virus strain [3]): 8.42 Log10 copy number/gram of lung
- effect on viral titer in lung tissue (in words) (RSV A2 virus strain [3]): significantly reduce the viral titer in lung tissue

Molecule: CC[C@H](C)[C@H](NC(=O)[C@H](CCCCN)NC(=O)[C@H](CCCCN)NC(=O)[C@H](CC(C)C)NC(=O)[C@H](CO)NC(=O)[C@H](CCC(=O)O)NC(=O)[C@H](CCC(=O)O)NC(=O)[C@@H](NC(=O)[C@H](CCCCN)NC(=O)[C@H](CCCCN)NC(=O)[C@H](CC(N)=O)NC(=O)[C@@H](NC(=O)[C@H](CCC(=O)O)NC(=O)[C@H](CCC(=O)O)NC(=O)[C@@H](NC(=O)[C@H](CCCCN)NC(=O)[C@H](CCCCN)NC(=O)[C@H](CC(=O)O)NC(=O)[C@H](Cc1ccccc1)NC(=O)[C@H](CCC(=O)O)NC(=O)C(CC(=O)O)NC(C)=O)[C@@H](C)CC)C(C)C)[C@@H](C)CC)C(=O)N[C@@H](CCC(=O)O)C(=O)N[C@@H](CCC(=O)O)C(=O)N[C@@H](CO)C(=O)N[C@@H](CC(=O)O)C(=O)N[C@@H](CCCCN)C(=O)N[C@@H](CCCCN)C(=O)N[C@@H](CC(C)C)C(=O)N[C@@H](CCC(=O)O)C(=O)N[C@@H](CCC(=O)O)C(=O)N[C@H](C(=O)N[C@@H](CC(N)=O)C(=O)N[C@@H](CCC(=O)O)C(=O)N[C@@H](C)C(=O)N[C@@H](C)C(=O)N[C@@H](C)C(=O)N[C@@H](CCCCN)C(=O)N[C@@H](CCCCNC(=O)CCC(=O)O[C@H]1CC[C@@]2(C)C(=CC[C@H]3[C@@H]4CC[C@H]([C@H](C)CCCC(C)C)[C@@]4(C)CC[C@@H]32)C1)C(N)=O)C(C)C (stereo partly drawn) [Compound 14] (Ac-[ξD]EFDKKIEEVNKKIEESLKKIEESDKKLEEVNEAAAKK(Succinyl(4-O-cholesteryl))-NH2)
- Mean (PFU/g lung) (RSV A2 virus strain [1]): 4820 PFU/g lung
- effect on viral titer in lung tissue (in words) (RSV A2 virus strain [1]): significantly reduce the viral titer in lung tissue
- CC50 at 1 day [2]: 9600 nM
- Nucleic acid load RT-qPCR detection results Log10 mean (copy number/gram of lung tissue) (RSV A2 virus strain [3]): 7.68 Log10 copy number/gram of lung
- effect on viral titer in lung tissue (in words) (RSV A2 virus strain [3]): significantly reduce the viral titer in lung tissue

B1: Compound 41 (peptide)
peptide: WDEFDKKIEEVNKKIEESLKKIEESDKKLEEVNEAAAKK
modifications: not checked
- EC50 (nM), plaque reduction, hPIV3 C243, LLC-MK2 cells [4]: 71.1 nM
- IC50/nM, Cell fusion inhibition activity (plaque reduction, RSV A long strain, HEp-2 cells) [5]: 14.8 nM
- EC50 (nM), plaque reduction, hMPV B1, Vero cells [6]: 9.46 nM
- EC50 (nM), plaque reduction, hMPV A2, Vero cells [7]: 11.7 nM
- Kd [8]: 492 nM

B2: Compound 40 (peptide)
peptide: WDEFDKKIEEVNKKIEESLKKIEESDKKLEEVNAEAAAKK
modifications: not checked
- EC50 (nM), plaque reduction, hPIV3 C243, LLC-MK2 cells [4]: 22.2 nM
- IC50/nM, Cell fusion inhibition activity (plaque reduction, RSV A long strain, HEp-2 cells) [5]: 11.7 nM
- EC50 (nM), plaque reduction, hMPV B1, Vero cells [6]: 7.47 nM
- EC50 (nM), plaque reduction, hMPV A2, Vero cells [7]: 13.8 nM
- Kd [8]: 2270 nM

B3: Compound 43 (peptide)
peptide: WDEFDASIEEVNRRIEESLRRIEESDRRLEEVEAAAKK
modifications: not checked
- EC50 (nM), plaque reduction, hPIV3 C243, LLC-MK2 cells [4]: 16.1 nM
- IC50/nM, Cell fusion inhibition activity (plaque reduction, RSV A long strain, HEp-2 cells) [5]: 18.3 nM
- EC50 (nM), plaque reduction, hMPV B1, Vero cells [6]: 8.01 nM
- EC50 (nM), plaque reduction, hMPV A2, Vero cells [7]: 16.8 nM
- Kd [8]: 5720 nM

B4: Compound 42 (peptide)
peptide: FDASIEEVNRRIEESLRRIEESDRRLEEVNAEAAAKK
modifications: not checked
- EC50 (nM), plaque reduction, hPIV3 C243, LLC-MK2 cells [4]: 18.9 nM
- IC50/nM, Cell fusion inhibition activity (plaque reduction, RSV A long strain, HEp-2 cells) [5]: 11.8 nM
- EC50 (nM), plaque reduction, hMPV B1, Vero cells [6]: 10.1 nM
- EC50 (nM), plaque reduction, hMPV A2, Vero cells [7]: 26.1 nM
- Kd [8]: 485 nM
